Values belong to the molecule of their own block, whether it stands above or below them.
How the values were obtained:
spindly = spindly (UniProt Q96EA4); experiment: SBP affinity purification, immunoblot; settings: reference: SST-MTAP, sites S398,S405,T408
Pin1 (GST-Pin1) = Pin1 (GST-Pin1) (UniProt Q13526); experiment: GST-Pin1 pull-down from U2OS lysate; settings: reference: SST-MTAP (wild type); sites S398,S405,T408
[1] = biological target: GST-tagged Pin1 (prolyl isomerase interacting NIMA 1) (UniProt Q13526 1-163); experiment: pull-down

Molecule: hLIC1 (dynein light intermediate chain 1) (from UniProt Q9Y6G9) AAA-MTAP, metaphase lysate
binding against the reference (spindly; metaphase lysate): weaker

Molecule: hLIC1 (dynein light intermediate chain 1) (from UniProt Q9Y6G9) AAA-MTAP
binding against the reference (Pin1 (GST-Pin1)): weaker

The next lines start with the values.

binding against the reference (spindly; prometaphase lysate): weaker
Molecule: hLIC1 (dynein light intermediate chain 1) (from UniProt Q9Y6G9) AAA-MTAP, prometaphase lysate

binding result [1]: binds
B1: purified rLIC1-CTD (aa 389-523), phosphorylated in vitro by cdk1-cyclin B (domain or fragment, rat, UniProt Q9QXU8 389-523, looked up)
chain: TAAGRPVDASPRVPGGSPRTPNRSVSSNVASVSPIPAGSKKIDPNMKAGATSEGVLANFFNSLLSKKTGSPGGPGVGGSPGGGAAGASTSLPPSAKKSGQKPVLSDVHAELDRITRKPASVSPTTPPSPTEGEAS
modifications: phosphorylated in vitro by cdk1-cyclin B (three cdk1 sites S398, S405, T408)

— article PMC8562849 (The Journal of Cell Biology, 2021)
